Laboratory results as given in the supplement of paper PMC11246515.
± gives the standard deviation of the averaged measurements.

Test: total protein half-life in vivo (active degradation + dilution); higher = more stable protein
[1] = E. coli NCM3722 delta-clpP, growth: N-lim chemostat, doubling time 6 h
[2] = E. coli NCM3722 delta-hslV, growth: N-lim chemostat, doubling time 6 h
[3] = E. coli NCM3722 delta-lon, growth: N-lim chemostat, doubling time 6 h
[4] = E. coli NCM3722 delta-smpB, growth: N-lim chemostat, doubling time 6 h
[5] = wild type E. coli NCM3722, growth: C-lim chemostat, doubling time 6 h
[6] = wild type E. coli NCM3722, growth: C-lim chemostat, doubling time 12 h
[7] = wild type E. coli NCM3722, growth: N-lim chemostat, doubling time 6 h
[8] = wild type E. coli NCM3722, growth: N-lim chemostat, doubling time 12 h
[9] = wild type E. coli NCM3722, growth: P-lim chemostat, doubling time 6 h
[10] = wild type E. coli NCM3722, growth: P-lim chemostat, doubling time 12 h
[11] = E. coli NCM3722 delta-clpP delta-lon delta-hslV, growth: N-lim chemostat, doubling time 6 h
[12] = wild type E. coli NCM3722, growth: C-lim chemostat, doubling time 3 h

| Sequence | total protein half-life in vivo [1] [h] | total protein half-life in vivo [2] [h] | total protein half-life in vivo [3] [h] | total protein half-life in vivo [4] [h] | total protein half-life in vivo [5] [h] | total protein half-life in vivo [6] [h] | total protein half-life in vivo [7] [h] | total protein half-life in vivo [8] [h] | total protein half-life in vivo [9] [h] | total protein half-life in vivo [10] [h] | total protein half-life in vivo [11] [h] | total protein half-life in vivo [12] [h] |
| --- | --- | --- | --- | --- | --- | --- | --- | --- | --- | --- | --- | --- |
| MKKATCLTDDQRWQSVLARDPNADGEFVFAVRTTGIFCRPSCRARHALRENVSFYANASEALAAGFRPCKRCQPEKANAQQHRLDKITHACRLLEQETPVTLEALADQVAMSPFHLHRLFKATTGMTPKAWQQAWRARRLRESLAKGESVTTSILNAGFPDSSSYYRKADETLGMTAKQFRHGGENLAVRYALADCELGRCLVAESERGICAILLGDDDATLISELQQMFPAADNAPADLMFQQHVREVIASLNQRDTPLTLPLDIRGTAFQQQVWQALRTIPCGETVSYQQLANAIGKPKAVRAVASACAANKLAIIIPCHRVVRGDGTLSGYRWGVSRKAQLLRREAENEER | 3.82 ± 0.28 | 2.03 | 3.25 ± 0.14 | 2.46 | 3.38 | 4.07 | 2.22 | 3.48 | 1.81 | 3.5 ± 0.11 |  |  |
| MKKFALLAGLFVFAPMTWAQDYNIKNGLPSETYITCAEANEMAKTDSAQVAEIVAVMGNASVASRDLKIEQSPELSAKVVEKLNQVCAKDPQMLLITAIDDTMRAIGKK [P0AB46] | 4 | 6.28 |  | 4.66 ± 0.55 | 4.69 ± 0.2 | 6.77 ± 0.093 | 4.93 | 10.1 ± 2.6 | 4.4 ± 1.1 | 8.95 ± 0.44 | 3 ± 0.32 | 2.77 |
| MKKFSGIIPPVSSTFHRDGTLDKKAMREVADFLINKGVDGLFYLGTGGEFSQMNTAQRMALAEEAVTIVDGRVPVLIGVGSPSTDEAVKLAQHAQAYGADGIVAINPYYWKVAPRNLDDYYQQIARSVTLPVILYNFPDLTGQDLTPETVTRLALQNENIVGIKDTIDSVGHLRTMINTVKSVRPSFSVFCGYDDHLLNTMLLGGDGAITASANFAPELSVGIYRAWREGDLATAATLNKKLLQLPAIYALETPFVSLIKYSMQCVGLPVETYCLPPILEASEEAKDKVHVLLTAQGILPV | 2.73 ± 0.14 |  |  | 3.17 ± 1.4 | 4.76 ± 0.24 | 9.39 ± 0.15 | 3.68 |  |  | 11.11 ± 0.052 | 4.88 ± 0.66 | 2.83 ± 0.1 |
| MKKGTVLNSDISSVISRLGHTDTLVVCDAGLPIPKSTTRIDMALTQGVPSFMQVLGVVTNEMQVEAAIIAEEIKHHNPQLHETLLTHLEQLQKHQGNTIEIRYTTHEQFKQQTAESQAVIRSGECSPYANIILCAGVTF | 5.79 ± 2.1 | 4.85 |  | 4.78 ± 0.7 | 6.69 ± 1.8 | 10.6 ± 0.4 | 4.95 ± 0.51 | 6.08 | 6.43 ± 0.15 | 13.3 ± 2.3 | 5.99 ± 0.1 | 3.49 ± 0.2 |
| MKKIALIIGSMIAGGIISAAGFTWVAKAEPPAEKTSTAERKILFWYDPMYPNTRFDKPGKSPFMDMDLVPKYADEESSASGVRIDPTQTQNLGVKTATVTRGPLTFAQSFPANVSYNEYQYAIVQARAAGFIDKVYPLTVGDKVQKGTPLLDLTIPDWVEAQSEYLLLRETGGTATQTEGILERLRLAGMPEADIRRLIATQKIQTRFTLKAPIDGVITAFDLRAGMNIAKDNVVAKIQGMDPVWVTAAIPESIAWLVKDASQFTLTVPARPDKTLTIRKWTLLPGVDAATRTLQLRLEVDNADEALKPGMNAWLQLNTASEPMLLIPSQALIDTGSEQRVITVDADGRFVPKRVAVFQASQGVTALRSGLAEGEKVVSSGLFLIDSEANISGALERMRSESATHAH | 4.8 | 5.69 ± 0.66 | 4.62 | 4.32 ± 1.3 | 5.79 | > 16 | 5.73 ± 0.53 | 10.2 ± 0.68 | 5.52 ± 0.11 | 10.7 ± 0.35 | 2.95 | > 4 |
| MKKIDAIIKPFKLDDVREALAEVGITGMTVTEVKGFGRQKGHTELYRGAEYMVDFLPKVKIEIVVPDDIVDTCVDTIIRTAQTGKIGDGKIFVFDVARVIRIRTGEEDDAAI [P0A9Z1] | 5.59 ± 1.1 | 5.06 ± 0.23 | 5.35 ± 0.13 | 4.77 ± 0.36 | 5.57 ± 0.17 | 10.5 ± 1.1 | 4.68 ± 0.49 | 8.91 ± 0.19 | 5.77 ± 0.31 | 11.6 ± 0.54 | 5.76 ± 0.58 | 3.3 ± 0.45 |
